For experiment [1], the target named is T1, murine VEGFR2 (soluble mVEGFR2) (murine, UniProt P35918 20-762).
T1 construct: also called mouse VEGFR2
In words: Biacore, murine VEGFR2. A general note: In SPR one partner is held on a chip, and binding of the other changes the refractive index at the surface.

Experiment [2] deals with T2, human VEGFR2 (soluble hVEGFR2) (human, UniProt P35968 20-764).
T2 construct: also called KDR
In words: Biacore, human VEGFR2.

The target of experiment [3] is rat VEGFR2 (rat, UniProt O08775 20-760, limits assumed). In words: Biacore, rat VEGFR2.
rat VEGFR2, sequence (O08775 20-760 limits assumed): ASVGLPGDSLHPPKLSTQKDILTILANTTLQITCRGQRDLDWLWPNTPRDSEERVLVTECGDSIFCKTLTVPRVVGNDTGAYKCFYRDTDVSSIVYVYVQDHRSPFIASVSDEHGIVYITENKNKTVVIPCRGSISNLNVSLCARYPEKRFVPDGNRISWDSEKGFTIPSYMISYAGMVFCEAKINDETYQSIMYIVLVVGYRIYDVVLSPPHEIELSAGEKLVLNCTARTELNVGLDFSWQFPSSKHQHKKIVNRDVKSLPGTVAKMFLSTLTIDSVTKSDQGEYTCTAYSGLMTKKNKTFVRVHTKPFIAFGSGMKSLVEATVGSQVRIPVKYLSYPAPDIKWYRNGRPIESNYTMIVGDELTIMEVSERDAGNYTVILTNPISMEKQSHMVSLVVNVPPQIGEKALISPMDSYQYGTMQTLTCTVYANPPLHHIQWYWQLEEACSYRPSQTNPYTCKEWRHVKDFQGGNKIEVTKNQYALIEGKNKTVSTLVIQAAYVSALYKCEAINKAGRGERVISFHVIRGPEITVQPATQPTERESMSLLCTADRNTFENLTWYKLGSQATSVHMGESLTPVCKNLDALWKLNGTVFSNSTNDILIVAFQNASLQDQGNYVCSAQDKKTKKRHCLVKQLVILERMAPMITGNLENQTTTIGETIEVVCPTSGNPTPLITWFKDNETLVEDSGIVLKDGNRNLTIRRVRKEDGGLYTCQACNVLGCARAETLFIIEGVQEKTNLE

The values below come from patent US20180250392A1 (published 2018).

T1 sequence (P35918 20-762 limits assumed): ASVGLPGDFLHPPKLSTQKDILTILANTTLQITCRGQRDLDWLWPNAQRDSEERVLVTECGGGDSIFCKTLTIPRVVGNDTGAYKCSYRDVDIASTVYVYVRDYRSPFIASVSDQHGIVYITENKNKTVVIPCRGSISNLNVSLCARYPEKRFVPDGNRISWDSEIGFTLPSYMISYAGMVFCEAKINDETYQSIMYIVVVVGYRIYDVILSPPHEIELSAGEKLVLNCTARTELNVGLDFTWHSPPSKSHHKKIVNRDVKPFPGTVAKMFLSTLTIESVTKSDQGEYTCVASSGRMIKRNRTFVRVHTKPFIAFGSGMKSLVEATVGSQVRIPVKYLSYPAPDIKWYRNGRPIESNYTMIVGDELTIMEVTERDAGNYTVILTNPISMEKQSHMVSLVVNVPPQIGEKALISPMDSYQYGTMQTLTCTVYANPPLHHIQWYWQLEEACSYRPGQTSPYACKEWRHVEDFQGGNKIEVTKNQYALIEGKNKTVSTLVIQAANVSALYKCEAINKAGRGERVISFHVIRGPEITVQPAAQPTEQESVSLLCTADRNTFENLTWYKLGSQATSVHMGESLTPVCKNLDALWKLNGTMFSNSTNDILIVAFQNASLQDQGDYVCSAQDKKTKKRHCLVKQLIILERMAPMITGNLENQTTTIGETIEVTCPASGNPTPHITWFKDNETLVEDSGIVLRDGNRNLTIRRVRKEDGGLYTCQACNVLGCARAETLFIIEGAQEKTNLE
T2 sequence (P35968 20-764 limits assumed): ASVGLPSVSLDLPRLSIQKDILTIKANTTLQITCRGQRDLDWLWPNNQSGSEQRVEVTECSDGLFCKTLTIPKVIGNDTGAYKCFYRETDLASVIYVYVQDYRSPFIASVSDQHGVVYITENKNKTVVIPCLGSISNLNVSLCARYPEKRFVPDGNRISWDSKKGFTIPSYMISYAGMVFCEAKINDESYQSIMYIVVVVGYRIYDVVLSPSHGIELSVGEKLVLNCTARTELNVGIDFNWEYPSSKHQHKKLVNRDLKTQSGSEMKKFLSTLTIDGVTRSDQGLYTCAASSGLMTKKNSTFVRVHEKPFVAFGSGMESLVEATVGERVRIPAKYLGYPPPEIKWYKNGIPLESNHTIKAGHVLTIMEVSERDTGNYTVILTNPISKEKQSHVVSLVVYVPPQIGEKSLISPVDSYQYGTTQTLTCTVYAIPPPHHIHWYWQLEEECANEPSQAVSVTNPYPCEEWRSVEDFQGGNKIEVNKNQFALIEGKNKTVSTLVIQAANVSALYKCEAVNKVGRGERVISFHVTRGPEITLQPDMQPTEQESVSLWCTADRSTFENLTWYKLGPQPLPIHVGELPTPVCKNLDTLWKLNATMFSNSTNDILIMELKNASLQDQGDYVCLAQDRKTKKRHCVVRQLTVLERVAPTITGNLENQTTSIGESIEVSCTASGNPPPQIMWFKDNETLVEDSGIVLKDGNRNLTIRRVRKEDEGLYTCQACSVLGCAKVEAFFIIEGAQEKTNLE

B1: Mab 149 (B1C4_E5) (antibody, V domains shown)
VH: EVQLLESGGGLVQPGGSLRLSCAASGFTFSWYVMGWVRQAPGKGLEWVSSIYPSGGATNYADSVKGRFTISRDNSKNTLYLQMNSLRAEDTAVYYCARGNYLDYWGQGTLVTVSS
VL: DIQMTQSPGTLSLSPGEGATLSCRASQSVSSNYFGWYQQKPGQAPRLLIYGASSRATGIPDRFSGSGSGTDFTLTISRLEPEDSAVYYCQQFDSSPLSFGGGTKVEIKR
Consider B1, for which the dissociation rate constant (koff) (in general, the rate constant with which the complex falls apart) in experiment [1] turned out to be 0.00181 s⁻¹; in experiment [2], 0.000659 s⁻¹; in experiment [3], 0.00143 s⁻¹. For the same molecule, the kon (in general, the second-order rate constant of association) in experiment [1] was 22900 M⁻¹ s⁻¹; in experiment [2] it was 86200 M⁻¹ s⁻¹; in experiment [3], 33200 M⁻¹ s⁻¹.

B2: Mab 147 (B1C4_A7) (antibody, V domains shown)
VH: EVQLLESGGGLVQPGGSLRLSCAASGFTFSWYVMGWVRQAPGKGLEWVSSIYPQGGATSYADSVKGRFTISRDNSKNTLYLQMNSLRAEDTAVYYCARGNYFDYWGQGTLVTVSS
VL: DIQMTQSPGTLSLSPGEGATLSCRASQSVSSNYFGWYQQKPGQAPRLLIYGASSRATGIPDRFSGSGSGTDFTLTISRLEPEDSAVYYCQQFDSLPLTFGGGTKVEIKR
With B2, the figures for the koff in experiment [1], in experiment [2] and in experiment [3] were 0.00128 s⁻¹, 0.000282 s⁻¹ and 0.000899 s⁻¹, respectively. For the same molecule, the kon in experiment [1] turned out to be 43800 M⁻¹ s⁻¹; in experiment [2], 113000 M⁻¹ s⁻¹; in experiment [3], 64500 M⁻¹ s⁻¹.
